Measurements published in the DeepSol protein solubility set.

Assay: soluble on expression in E. coli; label from the status in PepcDB or PDB records

| Sequence | soluble on expression in E. coli |
| --- | --- |
| MGSDKIHHHHHHMNLSRVGKHGTGMWNYSKNIADMLHESGFLDSIICSKDHVEYFSNRYKDPKVDIIITPEIVSNTMKVSKFRPLIWLSYSYFLGCKLVLSKKKKDVALLSTTHHSIPFFKNQFITIHDLRPAFYPDSKLQEIYFSHYLPRKVKELRGVFTVSETVKNEIEEHMGVARSDIQVVYNSVDPSLRPDGTDNSEQATIKNTFLMVGASWKHKNAHSFLKNFLAYHKDNYSAVIVCGQTDYFDELKSLVATLGLENNVTFKHHISEQELSSLYKTSFALVYPSLSEGFGIPPIEAMSLSLPVIVSDIPVFKEILGEAAVYVDPNVRESWEHAVDTLKVSRENVIDTGLQRVNLYSYERCKDMLMLALNNINEKSR | not soluble |
| MGSDKIHHHHHHMKKRNITEFQVLSEIIRKQPHIKQKEIAENLGITVQAVSEHIRNLVKEGYVKSRGRGEYVVTEKGLRKLKNWISEFKDYLDEINTAVYRYKDIWPAIADEDVKDGETVYLFMKNGLLYASKQPKGEAKAKALYGGKKGEDIAICEIKGIIDVPKGKVIVFRIPPEVVGGSRAVDFNLIKENIDNLDDYVIATMGTVAYVVACKLGLKPDIRFAVPEAIVNACNRGCNVIALITGKMAEKVIKKLDNAKISYTVLDATKENK | not soluble |
| MSLTGLCDSHLHTPLCGHATGTPREYAQAALDAGLSGLCFTDHMPMPRWYDAPWRMKLEQLPEYIAEIQAVQQEFAGRLDVRLGLEADFHPGTEKFVEKVLGMFDWDYVIGSVHYLGAWGFDNPEFVAEYEERDLGGLYRDYYALVEGAARSGLFDAIGHLDLPKKFGHLDPDPVYALHALDVVAGQGLALDFNTAGWRKPVAEAYPAPDLVRAAAERGIPFVLGSDAHQPGEVGFRFADAVKEIRDVGGRTVTFRHRKMQEGHHHHHH | soluble |
| MATPALLPGVDLAAFAAALAARLRDAGIPVSASGQASLVQALQQLVPRTPAALYWGARLTLVSRVDELATFDAVFASLFGVFGSAEPDGANRPPPPIAGPRTPVAGVGHRAKRRSCAAQAQNLPWDTRSLTMASAGQGGPSRTLPDVLPSRIVARADEPFDQFDPDDLRLLGAWLEATMARWPRRRSMRFESSPHGKRIDLRATMNASRSTGWESVLLARIRPRRRPRRVLLLCDVSRSMQPYAAIYLRLMRAAVLRRAGGHPEVFAFSTSLTRLTSVLSHRSAEMALHRANARVTDRYGGTFIGRSVAALLAPPHGNALRGAVVIIASDGWDSDPPDVLVHALTRVRRRAELLVWLNPRAAHPEFQPRAGSMAAALPYCDLFLPAHSLAGLHQLLLALAGAR | soluble |
| MGSDKIHHHHHHVLDKIELFILDMDGTFYLDDSLLPGSLEFLETLKEKNKRFVFFTNNSSLGAQDYVRKLRNMGVDVPDDAVVTSGEITAEHMLKRFGRCRIFLLGTPQLKKVFEAYGHVIDEENPDFVVLGFDKTLTYERLKKACILLRKGKFYIATHPDINCPSKEGPVPDAGSIMAAIEASTGRKPDLIAGKPNPLVVDVISEKFGVPKERMAMVGDRLYTDVKLGKNAGIVSILVLTGETTPEDLERAETKPDFVFKNLGELAKAVQ | soluble |
| MEFHFFGTGSGVPSIERNVSACAVRFLQQRGKQWLFDCGEATQHQILRSSIALGKIERIFITHLHGDHIFGLPGLLGSRSFQGGENPLFLYGPKGIRSFVETALQVSNTHVKYELTIEEFSEPGLLFHEEGFKVETILLDHVMPCYAFKVTEDDRPGELLVDRLKAKGVPPGPLYRKIQQGETVELPTGERLEANAFLGPPKRGRSFVLAGDTRPVKELIPFAKNVNVLIHEATFLDDKKGHAHEYGHSTMADAIQLAKQANVDHLILTHISSRYHDMSDELQKKAQNAFANAVVAHDFYVFHLPLAKGLEHHHHHH | not soluble |
| MAYVKERIYESMFIIAPNVPEEERENLVERVKKIIEERVKGKIDKVERMGMRKFAYEIKKFNEGDYTVIYFRCDGQNLQELENFYRVTPEIIRWQTFRRFDLEKKERKAQREKAAAEATESSEGGSED | not soluble |
| MAHHHHHHMAEQFTEDIGVVNKRLLEPVPFVKTNNCIKDVDADLFIRSYATHLKLHNKITYPKWCTFVKTGKGRKLAPLNEDWYFIRASSILRRLYLHPDIGVGFLRRQFSSKQRRGVAPNHTSLASGKILRSILQQLENLGYVEQNPKKKGRRLTTKGENAINNFARYINKKVYNKE | not soluble |
| MIQRDIEYSGQYSKDVKLAQKRHKDMNKLKYLMTLLINNTLPLPAVYKDHPLQGSWKGYRDAHVEPDWILIYKLTDKLLRFERTGTHAALFGLEHHHHHH | soluble |
| MSTPLSRVITNEIFRVPARRKPKPAVKPSDIPTLKDYTARLVDQKWLRLAARRKSA | not soluble |
| DCLLPIVAAPMAGGPTTVALAQAVSGVGGFPFLAGGYKSVEALATEIAVLRASGGNFGVNLFVPSPDMVDAEAFRIYAAKLQSEALPYGLRLDPLPVMGDDDGWPDKLALLLNDPVPVVSFTFGLPAVRDIAALRCAGSRVLASVTLPAEAQAAMEAGVDGLVVQGPDAGGHSATYDPGRPFTPLKTVSLVRRVCAVSSLPVIAAGGVDGPVMVRALLQAGAAAVAIGTLLLRTKESGATQVHKDALANPAYTETVITHAFTGRPARTLRNGFVNRYHASAPLGYPAIHHLTRPLRQAAASAGDADVLHLWAGTGYRQAMDGSAVDVIQ | not soluble |
| MGSDKIHHHHHHMKVLLTRPEGRNQSMVDALNERGIEHCVTPLLCVEATPALPPETSHPLANVDMVVCISANAVSFADDTFKANDANVKGWPKVPYFAVGHATWEALQQIDIDALEAPDDCQQTEGLLTLPTLQHIQGKKITIIRGVGGREALAEQLTSRGAQVRYWEVYQRACPPLDGTIITQQWIDLGIDTVVVTSGEVLDNLINLVPKELFAWLRSCHIIVPSNRVEAQAHAFGITQVTNANAANSKAVLNALKL | not soluble |
| MGSDKIHHHHHHMNKPERPSHLAAARREPTHYLTADERAAKGRALRDTVPRGSQSGWQAPEDRRDPIELLNESNAGRILDLVPIRYGRMAASPFAFYRGSASLMAADLATTPSSGIRVQACGDAHLMNFGGFATPERNIIFDINDLDETLPAPFEWDLKRLAASLAIAAEHLALPKSDAARVVTDVVREYRERMFNYGWMRALDVWYDRIDLQKYEDRSGDPEIVAAARKRLAQRIEGERRKTVPDYLYPKLVSEEGAKPRIKDEPPLIFHPTEELAPGMGSDYAQAIASYRSSLAEHVRVLFDRFHFFDMAIKVVGVGSVGTMCGVGLFLAADNDPLFLQVKEARASVLEPYAGKSLHANHGERVIAGQRLMQAASDVFLGWTRGENGRDFYLRQLRDMKLSAVIEDWDTGMLRQYGRMCAHALARAHARSGDAAMMAGYMGSGQAFDDAICEFATEYCSQNRSDFRTFVAAIREGRIEARLEAN | not soluble |
| MGHHHHHHSHMQWSKEEEAAARKKVKENSAVRVLLEEQVKYEREASKYWDTFYKIHKNKFFKDRNWLLREFPEILPVDQKPEEKARESSWDHVKTSATNRFSRMHCPTVPDEKNHYEKSSGSSEGQSKTESDFSNLDSEKHKKGPMETGLFPGSNATFRILEVGCGAGNSVFPILNTLENSPESFLYCCDFASGAVELVKSHSSYRATQCFAFVHDVCDDGLPYPFPDGILDVILLVFVLSSIHPDRTLFI | not soluble |
| MTGASRPPKSRRSAAAAPSPEGLTLDLERYVPAFITFIANKLSNSATAFYQGNFGVNVTEWRIMSLLAIEPGISAARICQVIGFNKGPVSRTLSDMQSRGLITIRVDPNDARTHSISLTGKGRATHDKVIVAALERERKLMSCLSADEQEVLIDLLRRLHNNLGAVTGETT | not soluble |
| MGSDKIHHHHHHMEPGSQVTDRLRFGCTGCGKCCTGHHVPLTLAEARRWAEDAGQVVVLIEAFVVDGPGMPLEQRDHVLRRSHPVHCGEGEARVSVTFAAFNPGRCRNLDANDLCTIYEQRPLVCRIYPVEINPHIPLRPDSKDCPPEAWQQGPELIHGTQLVDVELQALVQASRQADRDDIAAKVAVCQALGMTTSALKGNGFTAYLPDMGAFAAALAQVQGNEGAQWTLHVQDEALTASLQALGLRTTHETPVYYAFIGF | not soluble |
| MAFNDCFSLNYPGNPCPGDLIEVFRPGYQHWALYLGDGYVINIAPVDGIPASFTSAKSVFSSKALVKMQLLKDVVGNDTYRINNKYDETYPPLPVEEIIKRSEFVIGQEVAYNLLVNNCEHFVTLLRYGEGVSEQANRAISTVEFVTAAVGVFSFLGLFPKGQRAKYYLEHHHHHH | soluble |
